Measurements taken from the supplement of paper PMC9112550, “Optimization of the antimicrobial peptide Bac7 by deep mutational scanning” (BMC Biology, 2022).

What follows are sequences tested on Escherichia coli TOP10 (assay: shrunken log2 fold change of peptide-encoding DNA abundance (4.5 h post-induction vs induction); higher = less antimicrobial activity (less host growth inhibition)). Details: time post-induction: 4.5 h; library: site-saturation at positions 5, 18, 19, 20.
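Further: peptides expressed intracellularly from a pBAD plasmid library in pooled LB shake-flask culture, induced with 0.3% L-arabinose, DNA abundance read by NGS, three biological replicates, DESeq2 with apeglm shrinkage.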

Row | Sequence | shrunken log2 fold change
1 | RRIRCRPPRLPRPRPRPPRMPRP | 0.671
2 | RRIRCRPPRLPRPRPRPPRWPRP | 1.16
3 | RRIRCRPPRLPRPRPRPPSNPRP | -0.416
4 | RRIRCRPPRLPRPRPRPPTLPRP | -0.0423
5 | RRIRCRPPRLPRPRPRPPTRPRP | 0.645
6 | RRIRCRPPRLPRPRPRPPVIPRP | -0.0627
7 | RRIRCRPPRLPRPRPRPPWRPRP | 0.751
8 | RRIRCRPPRLPRPRPRPPYRPRP | -0.0439
9 | RRIRCRPPRLPRPRPRPQACPRP | 0.00494
10 | RRIRCRPPRLPRPRPRPQAPPRP | 0.211
11 | RRIRCRPPRLPRPRPRPQAQPRP | 0.315
12 | RRIRCRPPRLPRPRPRPQDYPRP | -0.176
13 | RRIRCRPPRLPRPRPRPQFFPRP | -0.433
14 | RRIRCRPPRLPRPRPRPQHWPRP | 0.102
15 | RRIRCRPPRLPRPRPRPQMWPRP | 0.0606
16 | RRIRCRPPRLPRPRPRPQNKPRP | -0.526
17 | RRIRCRPPRLPRPRPRPQNTPRP | -0.691
18 | RRIRCRPPRLPRPRPRPQPEPRP | 0.13
19 | RRIRCRPPRLPRPRPRPQRCPRP | -0.0802
20 | RRIRCRPPRLPRPRPRPQRPPRP | 0.166
21 | RRIRCRPPRLPRPRPRPQSQPRP | 0.131
22 | RRIRCRPPRLPRPRPRPQTWPRP | 0.295
23 | RRIRCRPPRLPRPRPRPQVFPRP | -0.13
24 | RRIRCRPPRLPRPRPRPQVGPRP | -0.0906
25 | RRIRCRPPRLPRPRPRPQVKPRP | 0.0486

Row | Sequence | shrunken log2 fold change
26 | RRIRCRPPRLPRPRPRPQVNPRP | -0.246
27 | RRIRCRPPRLPRPRPRPQYPPRP | -0.329
28 | RRIRCRPPRLPRPRPRPRAAPRP | 0.779
29 | RRIRCRPPRLPRPRPRPRCAPRP | 0.346
30 | RRIRCRPPRLPRPRPRPRDFPRP | 0.0317
31 | RRIRCRPPRLPRPRPRPRDNPRP | 2.6
32 | RRIRCRPPRLPRPRPRPRDTPRP | 0.0379
33 | RRIRCRPPRLPRPRPRPRENPRP | 0.439
34 | RRIRCRPPRLPRPRPRPRFNPRP | -0.288
35 | RRIRCRPPRLPRPRPRPRFPPRP | -0.0867
36 | RRIRCRPPRLPRPRPRPRIAPRP | 0.0204
37 | RRIRCRPPRLPRPRPRPRIRPRP | 0.0722
38 | RRIRCRPPRLPRPRPRPRITPRP | -0.212
39 | RRIRCRPPRLPRPRPRPRKVPRP | 0.196
40 | RRIRCRPPRLPRPRPRPRLGPRP | 0.485
41 | RRIRCRPPRLPRPRPRPRMLPRP | 0.0183
42 | RRIRCRPPRLPRPRPRPRPKPRP | 0.901
43 | RRIRCRPPRLPRPRPRPRQDPRP | -0.0742
44 | RRIRCRPPRLPRPRPRPRQGPRP | 0.436
45 | RRIRCRPPRLPRPRPRPRRKPRP | 0.399
46 | RRIRCRPPRLPRPRPRPRTHPRP | -0.168
47 | RRIRCRPPRLPRPRPRPRTKPRP | 0.246
48 | RRIRCRPPRLPRPRPRPRVCPRP | 0.284
49 | RRIRCRPPRLPRPRPRPRWCPRP | -0.131
50 | RRIRCRPPRLPRPRPRPRYGPRP | -0.499

Row | Sequence | shrunken log2 fold change
51 | RRIRCRPPRLPRPRPRPSARPRP | 0.16
52 | RRIRCRPPRLPRPRPRPSCCPRP | 0.0437
53 | RRIRCRPPRLPRPRPRPSCYPRP | -0.295
54 | RRIRCRPPRLPRPRPRPSDGPRP | -0.0084
55 | RRIRCRPPRLPRPRPRPSECPRP | -0.0818
56 | RRIRCRPPRLPRPRPRPSEPPRP | -0.184
57 | RRIRCRPPRLPRPRPRPSFGPRP | -0.496
58 | RRIRCRPPRLPRPRPRPSGFPRP | -0.218
59 | RRIRCRPPRLPRPRPRPSGMPRP | -0.35
60 | RRIRCRPPRLPRPRPRPSGNPRP | -0.598
61 | RRIRCRPPRLPRPRPRPSGQPRP | -0.0552
62 | RRIRCRPPRLPRPRPRPSHCPRP | -0.393
63 | RRIRCRPPRLPRPRPRPSHKPRP | -0.641
64 | RRIRCRPPRLPRPRPRPSIHPRP | -0.929
65 | RRIRCRPPRLPRPRPRPSILPRP | -0.739
66 | RRIRCRPPRLPRPRPRPSIWPRP | -0.342
67 | RRIRCRPPRLPRPRPRPSNIPRP | -0.319
68 | RRIRCRPPRLPRPRPRPSQIPRP | -0.698
69 | RRIRCRPPRLPRPRPRPSRYPRP | -0.285
70 | RRIRCRPPRLPRPRPRPSTPPRP | -0.382
71 | RRIRCRPPRLPRPRPRPSVHPRP | -0.575
72 | RRIRCRPPRLPRPRPRPSVWPRP | 0.238
73 | RRIRCRPPRLPRPRPRPSWEPRP | -0.0769
74 | RRIRCRPPRLPRPRPRPSWKPRP | -0.0761
75 | RRIRCRPPRLPRPRPRPSYTPRP | -0.748

Row | Sequence | shrunken log2 fold change
76 | RRIRCRPPRLPRPRPRPTCDPRP | 0.187
77 | RRIRCRPPRLPRPRPRPTCIPRP | -0.307
78 | RRIRCRPPRLPRPRPRPTDEPRP | 2.52
79 | RRIRCRPPRLPRPRPRPTDFPRP | -0.759
80 | RRIRCRPPRLPRPRPRPTDTPRP | -0.438
81 | RRIRCRPPRLPRPRPRPTDWPRP | 0.169
82 | RRIRCRPPRLPRPRPRPTEEPRP | 0.325
83 | RRIRCRPPRLPRPRPRPTEMPRP | -0.102
84 | RRIRCRPPRLPRPRPRPTFEPRP | -0.279
85 | RRIRCRPPRLPRPRPRPTGVPRP | 0.619
86 | RRIRCRPPRLPRPRPRPTGWPRP | 0.314
87 | RRIRCRPPRLPRPRPRPTHTPRP | 0.388
88 | RRIRCRPPRLPRPRPRPTIIPRP | -0.343
89 | RRIRCRPPRLPRPRPRPTINPRP | -0.783
90 | RRIRCRPPRLPRPRPRPTIWPRP | 0.105
91 | RRIRCRPPRLPRPRPRPTLDPRP | 0.337
92 | RRIRCRPPRLPRPRPRPTMDPRP | -0.237
93 | RRIRCRPPRLPRPRPRPTMFPRP | -0.2
94 | RRIRCRPPRLPRPRPRPTMNPRP | -0.421
95 | RRIRCRPPRLPRPRPRPTNHPRP | -0.573
96 | RRIRCRPPRLPRPRPRPTNLPRP | -0.656
97 | RRIRCRPPRLPRPRPRPTRIPRP | 0.258
98 | RRIRCRPPRLPRPRPRPTSQPRP | 0.00813
99 | RRIRCRPPRLPRPRPRPTTVPRP | -0.356
100 | RRIRCRPPRLPRPRPRPTVYPRP | -0.915

Row | Sequence | shrunken log2 fold change
101 | RRIRCRPPRLPRPRPRPTYMPRP | -0.432
102 | RRIRCRPPRLPRPRPRPTYWPRP | -0.113
103 | RRIRCRPPRLPRPRPRPVAQPRP | 0.159
104 | RRIRCRPPRLPRPRPRPVCPPRP | 0.0356
105 | RRIRCRPPRLPRPRPRPVDIPRP | -0.241
106 | RRIRCRPPRLPRPRPRPVEQPRP | -0.0247
107 | RRIRCRPPRLPRPRPRPVGDPRP | 0.551
108 | RRIRCRPPRLPRPRPRPVGEPRP | 0.0624
109 | RRIRCRPPRLPRPRPRPVIDPRP | 0.136
110 | RRIRCRPPRLPRPRPRPVIKPRP | -0.0948
111 | RRIRCRPPRLPRPRPRPVIVPRP | -0.208
112 | RRIRCRPPRLPRPRPRPVKWPRP | -0.24
113 | RRIRCRPPRLPRPRPRPVLDPRP | 0.0892
114 | RRIRCRPPRLPRPRPRPVLLPRP | -0.385
115 | RRIRCRPPRLPRPRPRPVMLPRP | -0.433
116 | RRIRCRPPRLPRPRPRPVMQPRP | -0.166
117 | RRIRCRPPRLPRPRPRPVNDPRP | -0.186
118 | RRIRCRPPRLPRPRPRPVNLPRP | 2.47
119 | RRIRCRPPRLPRPRPRPVNMPRP | -0.179
120 | RRIRCRPPRLPRPRPRPVNVPRP | -0.249
121 | RRIRCRPPRLPRPRPRPVPCPRP | 0.177
122 | RRIRCRPPRLPRPRPRPVPVPRP | 0.0927
123 | RRIRCRPPRLPRPRPRPVRRPRP | 1.1
124 | RRIRCRPPRLPRPRPRPVSIPRP | -0.549
125 | RRIRCRPPRLPRPRPRPVVIPRP | -0.223

Row | Sequence | shrunken log2 fold change
126 | RRIRCRPPRLPRPRPRPVVKPRP | 0.0236
127 | RRIRCRPPRLPRPRPRPVVWPRP | 0.354
128 | RRIRCRPPRLPRPRPRPVWCPRP | -0.269
129 | RRIRCRPPRLPRPRPRPVWHPRP | 0.127
130 | RRIRCRPPRLPRPRPRPVYPPRP | -0.559
131 | RRIRCRPPRLPRPRPRPWAWPRP | -0.105
132 | RRIRCRPPRLPRPRPRPWCGPRP | -0.288
133 | RRIRCRPPRLPRPRPRPWDPPRP | -0.211
134 | RRIRCRPPRLPRPRPRPWFNPRP | -1.12
135 | RRIRCRPPRLPRPRPRPWGKPRP | -0.102
136 | RRIRCRPPRLPRPRPRPWKFPRP | -0.318
137 | RRIRCRPPRLPRPRPRPWKHPRP | -0.264
138 | RRIRCRPPRLPRPRPRPWMEPRP | -0.344
139 | RRIRCRPPRLPRPRPRPWRGPRP | 0.185
140 | RRIRCRPPRLPRPRPRPWSEPRP | -0.0285
141 | RRIRCRPPRLPRPRPRPWSIPRP | 0.0457
142 | RRIRCRPPRLPRPRPRPWTNPRP | -0.0849
143 | RRIRCRPPRLPRPRPRPWTYPRP | -0.015
144 | RRIRCRPPRLPRPRPRPWVLPRP | -0.265
145 | RRIRCRPPRLPRPRPRPWVTPRP | -0.652
146 | RRIRCRPPRLPRPRPRPWVYPRP | -0.0957
147 | RRIRCRPPRLPRPRPRPWWFPRP | 0.0459
148 | RRIRCRPPRLPRPRPRPWYRPRP | -0.705
149 | RRIRCRPPRLPRPRPRPWYYPRP | -0.698
150 | RRIRCRPPRLPRPRPRPYCVPRP | -0.517
